± gives the uncertainty stated by the source.
B1: Transcription elongation regulator 1-like protein, residues 448 to 504; numbered along this chain, Q5VWI1 (parent)
chain: LPLEERVTHFRDMLLERGVSAFSTWEKELHKIVFDPRYLLLNSEERKQIFEQFVKTR

Variants of: B1
Assay: abundance fitness (aPCA) (normalised: wild type 0, dead -1); higher = more abundant; growth selection in yeast, the domain comes from the species named
Conditions: Homo sapiens

| Variant | abundance fitness |
| --- | --- |
| D12K | -0.119 ± 0.1 |
| D12Q | -0.223 ± 0.24 |
| D12I | -0.177 ± 0.33 |
| D12P | -0.83 ± 0.21 |
| D12M | 0.191 ± 0.12 |
| D12R | -0.283 ± 0.14 |
| D12Y | -0.112 ± 0.34 |
| D12A | -0.335 ± 0.33 |
| D12F | -0.624 ± 0.45 |
| D12S | -0.237 ± 0.098 |
| D12G | -0.381 ± 0.19 |
| D12N | -0.26 ± 0.26 |
| D12C | -0.578 ± 0.45 |
| D12V | -0.641 ± 0.26 |
| D12E | 0.274 ± 0.19 |
| D12W | -0.059 ± 0.16 |
| E5C | -0.303 ± 0.12 |
| E5G | -0.195 ± 0.19 |
| E5M | -0.254 ± 0.45 |
| E5K | -0.535 ± 0.41 |
| E5W | -0.715 ± 0.39 |
| E5F | -0.481 ± 0.35 |
| E5A | -0.73 ± 0.24 |
| E5T | -0.553 ± 0.46 |

| Variant | abundance fitness |
| --- | --- |
| E5L | -0.565 ± 0.12 |
| E5Q | -0.357 ± 0.31 |
| E5S | -0.375 ± 0.19 |
| E5Y | -0.483 ± 0.24 |
| E5P | -0.697 ± 0.19 |
| E5R | -0.01 ± 0.17 |
| E5I | -0.06 ± 0.16 |
| E5V | -0.416 ± 0.097 |
| F10T | -0.679 ± 0.4 |
| F10Q | -0.884 ± 0.34 |
| F10G | -0.727 ± 0.11 |
| F10P | -0.227 ± 0.46 |
| F10C | -1.1 ± 0.32 |
| F10A | -0.717 ± 0.14 |
| F10V | -0.97 ± 0.36 |
| F10W | -0.536 ± 0.27 |
| F10R | -0.677 ± 0.15 |
| F10M | -0.782 ± 0.2 |
| F10H | 0.065 ± 0.34 |
| F10L | -0.682 ± 0.21 |
| F10N | -0.237 ± 0.43 |
| L15A | -0.226 ± 0.19 |
| L15E | 0.351 ± 0.26 |
| L15D | -0.142 ± 0.47 |

| Variant | abundance fitness |
| --- | --- |
| L15C | -0.454 ± 0.17 |
| H9A | 0.001 ± 0.076 |
| H9R | -0.202 ± 0.14 |
| H9E | -0.234 ± 0.35 |
| H9S | -0.073 ± 0.12 |
| H9K | 0.157 ± 0.089 |
| H9M | 0.266 ± 0.075 |
| H9L | 0.279 ± 0.11 |
| H9V | -0.274 ± 0.19 |
| H9T | -0.456 ± 0.15 |
| H9Y | -0.236 ± 0.2 |
| H9W | -0.328 ± 0.31 |
| H9G | -0.554 ± 0.23 |
| H9F | -0.475 ± 0.48 |
| H9C | -0.201 ± 0.079 |
| H9I | 0.378 ± 0.39 |
| H9D | -0.024 ± 0.43 |
| H9Q | 0.232 ± 0.15 |
| R11W | -0.365 ± 0.32 |
| R11L | -0.396 ± 0.17 |
| R11K | -0.204 ± 0.21 |
| R11V | -0.626 ± 0.3 |
| R11D | -0.909 ± 0.16 |
| R11A | -0.544 ± 0.24 |

| Variant | abundance fitness |
| --- | --- |
| R11Q | -0.244 ± 0.15 |
| R11C | -0.5 ± 0.36 |
| R11T | -0.15 ± 0.32 |
| R11F | -0.248 ± 0.4 |
| R11E | -0.437 ± 0.23 |
| R11G | -0.586 ± 0.26 |
| R11M | -0.411 ± 0.29 |
| R11P | 0.183 ± 0.22 |
| R11Y | -0.259 ± 0.4 |
| R11S | -0.695 ± 0.32 |
| V7A | 0.039 ± 0.16 |
| V7T | -0.34 ± 0.094 |
| V7W | -0.594 ± 0.5 |
| V7F | 0.022 ± 0.14 |
| V7Y | -0.075 ± 0.35 |
| V7I | 0.199 ± 0.16 |
| V7H | -0.303 ± 0.22 |
| V7K | 0.843 ± 0.13 |
| V7G | -0.407 ± 0.14 |
| V7S | -0.334 ± 0.24 |
| V7C | -0.568 ± 0.2 |
| V7L | -0.096 ± 0.15 |
| V7M | 0.434 ± 0.21 |
| V7E | -0.406 ± 0.4 |

| Variant | abundance fitness |
| --- | --- |
| M13C | -0.804 ± 0.16 |
| M13E | -0.582 ± 0.3 |
| M13F | -0.765 ± 0.46 |
| M13V | -0.327 ± 0.13 |
| M13R | -0.7 ± 0.26 |
| M13K | -0.555 ± 0.42 |
| M13W | -0.08 ± 0.31 |
| M13A | -0.896 ± 0.15 |
| M13L | -0.415 ± 0.12 |
| M13S | -0.743 ± 0.29 |
| M13P | -0.257 ± 0.39 |
| M13I | -0.623 ± 0.17 |
| M13T | -0.759 ± 0.14 |
| E4L | -0.151 ± 0.2 |
| E4S | 0.033 ± 0.21 |
| E4A | -0.368 ± 0.33 |
| E4R | -0.867 ± 0.2 |
| E4P | -0.711 ± 0.29 |
| E4N | 0.154 ± 0.4 |
| E4T | -0.631 ± 0.23 |
| E4K | 0.132 ± 0.16 |
| E4C | -0.458 ± 0.18 |
| E4M | -0.646 ± 0.45 |
| L3V | 0.28 ± 0.11 |

| Variant | abundance fitness |
| --- | --- |
| L3P | -0.212 ± 0.4 |
| L3R | 0.304 ± 0.07 |
| L3W | -0.116 ± 0.11 |
| L3N | -0.031 ± 0.21 |
| L3Y | 0.138 ± 0.23 |
| L3S | -0.704 ± 0.23 |
| L3Q | 0.591 ± 0.16 |
| R6A | 0.062 ± 0.2 |
| R6M | -0.266 ± 0.47 |
| R6Q | -0.744 ± 0.29 |
| R6F | -0.292 ± 0.41 |
| R6W | -0.774 ± 0.38 |
| R6S | -0.832 ± 0.34 |
| R6T | -0.772 ± 0.28 |
| R6G | -0.894 ± 0.23 |
| R6E | -1.01 ± 0.44 |
| R6K | -0.485 ± 0.15 |
| R6V | -0.701 ± 0.18 |
| R6N | -0.485 ± 0.2 |
| T8Q | -0.563 ± 0.41 |
| T8M | -0.396 ± 0.43 |
| T8S | -0.149 ± 0.12 |
| T8F | -0.291 ± 0.31 |
| T8D | -0.45 ± 0.18 |

| Variant | abundance fitness |
| --- | --- |
| T8P | -0.013 ± 0.37 |
| T8I | -0.386 ± 0.2 |
| T8H | -0.39 ± 0.14 |
| T8N | -0.275 ± 0.17 |
| T8C | -0.372 ± 0.41 |
| T8G | -0.35 ± 0.13 |
| T8R | -0.631 ± 0.34 |
| T8V | -0.287 ± 0.11 |
| T8L | -0.471 ± 0.17 |
| L14A | -0.701 ± 0.12 |
| L14S | -0.831 ± 0.12 |
| L14P | -0.251 ± 0.42 |
| L14C | -0.561 ± 0.4 |
| L14K | -0.905 ± 0.34 |
| L14H | -0.997 ± 0.43 |
| L14M | -0.066 ± 0.33 |
| L14W | -0.093 ± 0.21 |
| L14D | -0.484 ± 0.22 |
| L14V | -0.967 ± 0.34 |
| L14G | -0.751 ± 0.18 |
| L14F | -0.817 ± 0.44 |
| L14T | -0.528 ± 0.34 |
| L14R | -0.739 ± 0.11 |
